For two molecules, Kd results are on record in PMC6212786.

What all share (test): fluorescence anisotropy
For data set [1], the target named is Human DNA ligase 1 (hLig1) (human, UniProt P18858 233-919).
The target of data set [2] is T1, T4 DNA ligase NTase-OB fragment (2CT) (Bacteriophage T4 (ATCC), UniProt P00970 136-487).
T1 sequence: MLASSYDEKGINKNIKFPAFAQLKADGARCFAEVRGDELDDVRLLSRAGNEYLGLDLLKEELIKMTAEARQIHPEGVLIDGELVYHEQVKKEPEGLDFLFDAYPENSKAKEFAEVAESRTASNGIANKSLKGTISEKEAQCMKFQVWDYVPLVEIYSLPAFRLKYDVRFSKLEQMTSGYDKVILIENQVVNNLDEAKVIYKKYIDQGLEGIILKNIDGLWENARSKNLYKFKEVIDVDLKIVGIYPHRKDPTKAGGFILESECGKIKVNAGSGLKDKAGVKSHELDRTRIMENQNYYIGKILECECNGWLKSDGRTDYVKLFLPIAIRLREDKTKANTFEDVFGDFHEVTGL

Data set [3] has as its target T2, T4 DNA ligase (gp30), full-length wild type (Bacteriophage T4 (ATCC), UniProt P00970 1-487).
T2 sequence: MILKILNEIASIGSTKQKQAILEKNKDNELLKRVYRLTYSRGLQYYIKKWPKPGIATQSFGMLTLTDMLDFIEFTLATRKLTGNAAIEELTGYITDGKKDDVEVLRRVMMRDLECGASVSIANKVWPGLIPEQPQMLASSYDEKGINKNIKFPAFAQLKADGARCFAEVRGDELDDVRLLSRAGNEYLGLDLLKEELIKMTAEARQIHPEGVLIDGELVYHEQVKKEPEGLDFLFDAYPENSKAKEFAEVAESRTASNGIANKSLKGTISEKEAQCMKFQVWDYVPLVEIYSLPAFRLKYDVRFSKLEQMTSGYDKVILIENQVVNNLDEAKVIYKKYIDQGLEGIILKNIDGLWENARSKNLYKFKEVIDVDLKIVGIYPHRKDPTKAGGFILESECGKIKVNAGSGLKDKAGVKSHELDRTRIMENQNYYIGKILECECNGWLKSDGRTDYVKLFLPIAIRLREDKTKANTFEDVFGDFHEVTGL

Data set [4] addresses T3, T4 DNA ligase DBD fragment (Bacteriophage T4 (ATCC), UniProt P00970 1-129).
T3 sequence: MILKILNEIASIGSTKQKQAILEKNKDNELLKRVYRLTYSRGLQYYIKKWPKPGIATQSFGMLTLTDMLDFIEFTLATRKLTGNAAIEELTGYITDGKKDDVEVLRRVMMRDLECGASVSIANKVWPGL

One may read the Kd as the concentration at which binding is half-saturated. Lower therefore signals a tighter complex.

Sequence of Human DNA ligase 1 (hLig1) (P18858 233-919): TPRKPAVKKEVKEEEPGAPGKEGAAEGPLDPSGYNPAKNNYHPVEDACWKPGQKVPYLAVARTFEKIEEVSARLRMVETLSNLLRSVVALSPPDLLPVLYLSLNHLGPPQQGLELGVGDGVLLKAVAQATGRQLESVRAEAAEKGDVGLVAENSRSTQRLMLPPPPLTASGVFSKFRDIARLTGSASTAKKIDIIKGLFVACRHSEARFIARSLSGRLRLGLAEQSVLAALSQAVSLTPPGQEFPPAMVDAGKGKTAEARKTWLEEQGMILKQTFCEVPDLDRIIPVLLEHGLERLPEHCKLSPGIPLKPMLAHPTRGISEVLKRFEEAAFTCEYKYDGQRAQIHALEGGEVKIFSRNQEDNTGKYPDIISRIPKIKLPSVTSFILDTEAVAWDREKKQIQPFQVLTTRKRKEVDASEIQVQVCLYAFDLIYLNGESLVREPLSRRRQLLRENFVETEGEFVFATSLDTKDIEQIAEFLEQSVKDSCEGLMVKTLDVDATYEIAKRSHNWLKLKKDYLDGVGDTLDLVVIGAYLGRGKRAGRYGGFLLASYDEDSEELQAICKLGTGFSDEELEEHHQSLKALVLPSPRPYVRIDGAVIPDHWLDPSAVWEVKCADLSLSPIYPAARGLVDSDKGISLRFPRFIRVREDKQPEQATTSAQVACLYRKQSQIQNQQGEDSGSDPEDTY

B1: nicked 32-bp dsDNA probe (dsDNA)
DNA 1: GGTAGCCACAGCCAGTCAGCCGATTGCGGGAC
DNA 2: GTCCCGCAATCGGCTG
DNA 3: ACTGGCTGTGGCTACC
modifications: 5'-phosphate on S6 at the nick
Take B1: the Kd in data set [1] worked out at 7.7 µM; in data set [2] it was 23 µM; in data set [3], 6.3 µM; in data set [4], 138 µM.

B2: intact (unnicked) 32-bp dsDNA probe (dsDNA)
DNA 1: B1 DNA 1
DNA 2: GTCCCGCAATCGGCTGACTGGCTGTGGCTACC
As for B2, the Kd in data set [1] stood at 11 µM; in data set [2], 17 µM; in data set [3] it was 6.6 µM; in data set [4], 119 µM.
